Measurements: paper PMC5979607, “Crystal Structure of the Isocitrate Dehydrogenase 2 from Acinetobacter baumannii (AbIDH2) Reveals a Novel Dimeric Structure with Two Monomeric-IDH-Like Subunits” (International Journal of Molecular Sciences, 2018)

Columns and labels:
[1] = test system: NC(=O)c1ccc[n+]([C@@H]2O[C@H](COP(=O)(O)OP(=O)(O)OC[C@H]3O[C@@H](n4cnc5c(N)ncnc54)[C@H](OP(=O)(O)O)[C@@H]3O)[C@@H](O)[C@H]2O)c1; assay: purified protein; conditions: Mn2+ (2 mM MnCl2), 1.0 mM isocitrate, 35 mM Tris-HCl pH 7.5, 25 °C, varied: cofactor
[2] = test system: O=C(O)CC(C(=O)O)C(O)C(=O)O; assay: purified protein; conditions: Mn2+ (2 mM MnCl2), NADP+ co-substrate, 35 mM Tris-HCl pH 7.5, 25 °C, DL-isocitrate in the assay
[3] = target: Isocitrate dehydrogenase 2 from Acinetobacter baumannii (AbIDH2) (Acinetobacter baumannii); assay: SEC; analytical gel filtration, Superdex 200 10/300 column, 50 mM NaH2PO4 pH 7.5, 300 mM NaCl, flow rate 0.5 mL/min; mass from a calibration curve
[4] = target: Isocitrate dehydrogenase 2 from Acinetobacter baumannii (AbIDH2) (Acinetobacter baumannii); assay: AUC; sedimentation velocity, Beckman XL-A, An-60 Ti rotor, 20 °C, 45,000 g, continuous c(s) distribution

Row | Substance | Km [1] | kcat [1] | kcat/Km [1] | Km [2] | kcat [2] | stoichiometry N [3] | stoichiometry N [4]
1 | AbIDH2 (Acinetobacter baumannii ATCC 19606 = CIP 70.34 = JCM 6841) | 94 ± 6 µM | 36.9 ± 1.2 s⁻¹ | 390000 M⁻¹ s⁻¹ | 20.6 ± 3.1 µM | 39.2 ± 2.1 s⁻¹ |  | 
2 | Isocitrate dehydrogenase 2 from Acinetobacter baumannii (AbIDH2) (enzyme) |  |  |  |  |  | 2 | 2
